In patent US12655208 (PARAGON THERAPEUTICS, dated 2026):
Residue numbers refer to the chain shown, from its start. Values belong to the binder of their own block, whether it stands above or below them.

Assays:
Recombinant Human IL-23 [1] = molecular target: T1, Recombinant Human IL-23 (human, UniProt Q9NPF7 20-189; P29460 23-328); assay: cell-based or functional assay
T1 sequence (looked up) 1: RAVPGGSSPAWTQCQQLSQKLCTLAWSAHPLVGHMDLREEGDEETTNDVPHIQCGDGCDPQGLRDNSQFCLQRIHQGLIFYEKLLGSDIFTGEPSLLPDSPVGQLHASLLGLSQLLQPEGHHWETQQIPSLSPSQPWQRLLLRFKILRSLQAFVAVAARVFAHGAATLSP
T1 sequence (looked up) 2: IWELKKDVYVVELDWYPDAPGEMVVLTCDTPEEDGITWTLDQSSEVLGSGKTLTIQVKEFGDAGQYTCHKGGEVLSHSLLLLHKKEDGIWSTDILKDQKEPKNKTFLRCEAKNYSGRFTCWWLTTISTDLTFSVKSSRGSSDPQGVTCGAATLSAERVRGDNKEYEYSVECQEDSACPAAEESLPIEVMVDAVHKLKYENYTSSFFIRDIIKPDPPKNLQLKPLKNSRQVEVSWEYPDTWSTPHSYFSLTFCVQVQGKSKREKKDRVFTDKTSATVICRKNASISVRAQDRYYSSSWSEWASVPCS

Recombinant Human IL-23 [2] = molecular target: T1, Recombinant Human IL-23; assay: cell-based or functional assay; remark: listed apart in the source
Recombinant Human IL-23 [3] = molecular target: T1, Recombinant Human IL-23; assay: SPR (Biacore 8K), mAb captured on anti-human IgG, hIL-23 as analyte, 25 °C
Procedure: Binding affinities (K_D) of antibodies to human IL-23 (generated as described in Examples 1-3) were determined through surface plasmon resonance (SPR) using a BIA-CORE™ 8K SPR system (Cytiva). […] Anti-IL23 mAb constructs (diluted to 2 µg/mL) were captured onto flow cell 2 (active) for 60 sec at a flow rate of 10 µL/min. Recombinant Human IL-23 was prepared at concentrations of 0, 1.23, 3.7, 11.11, 33.33, 100 nM and injected over flow cell 1 (reference) and flow cell 2 (active) for 180 sec at a flow rate of 50 µL/min. Samples were injected in a multi-cycle manner over freshly captured mAb, by regenerating the capture surfaces with injection of 10 mM glycine, pH 1.5 for 30 sec at a flow rate of 30 µL/min. A 1:1 kinetic binding model was utilized to determine the apparent association (ka) and dissociation rate constants (kd). Their ratio provides the apparent equilibrium dissociation constant or affinity constant (K_D=kd/ka).

Recombinant Human IL-23 [4] = molecular target: T1, Recombinant Human IL-23; assay: cell-based or functional assay; remark: listed apart in the source

- IC50, inhibition of STAT3 activity and phosphorylation (Recombinant Human IL-23 [1]): < 1 nM
- Relative IC50, inhibition of IL-23-induced STAT3 activation (luciferase reporter, HEK 293F IL-23R+/IL-12Rβ1+) (Recombinant Human IL-23 [2]): 0.64 relative to Reference Antibody 1
- koff (Recombinant Human IL-23 [3]): < 1e-06 s⁻¹
- kon (Recombinant Human IL-23 [3]): 266000 M⁻¹ s⁻¹
B1: Clone MAb002 (antibody, human IgG1, kappa, L234A L235A, V domains shown)
VH: EVQLLESGGGLVQPGGSLRLSCAASGYTFTDQTIHWVRQAPGKGLEWIGYIYPRDDSPKYNENFKGRATLSADNSKNTAYLQMNSLRAEDTAVYYCAIPDRSGYAWFIYWGQGTTVTVSS
VL: EIVMTQSPATLSVSPGERATLSCKASRDVAIAVAWYQQKPGQAPRLLLFWASTRHTGIPARFSGSGSRTEFTLTISSLQSEDFAVYYCHQYSSYPFTFGGGTKVEIKR
notes: Described as an extended half-life humanized IgG1 monoclonal antibody

- Relative IC50, inhibition of IL-23-induced STAT3 activation (luciferase reporter, HEK 293F IL-23R+/IL-12Rβ1+) (Recombinant Human IL-23 [2]): 1 relative to Reference Antibody 1
- Relative IC50, inhibition of IL-23-induced phosphorylation of STAT3 in DB cells (pSTAT3 ELISA) (Recombinant Human IL-23 [4]): 1 relative to Reference Antibody 1
- koff (Recombinant Human IL-23 [3]): < 1e-06 s⁻¹
- kon (Recombinant Human IL-23 [3]): 167000 M⁻¹ s⁻¹
B2: Reference Antibody 1 (antibody, human IgG1, kappa, L234A L235A, V domains shown)
VH: QVQLVQSGAEVKKPGSSVKVSCKASGYTFTDQTIHWMRQAPGQGLEWIGYIYPRDDSPKYNENFKGKVTITADKSTSTAYMELSSLRSEDTAVYYCAIPDRSGYAWFIYWGQGTLVTVSS
VL: DIQMTQSPSSLSASVGDRVTITCKASRDVAIAVAWYQQKPGKVPKLLIYWASTRHTGVPSRFSGSGSRTDFTLTISSLQPEDVADYFCHQYSSYPFTFGSGTKLEIKR
notes: Human IgG1 with LALA; also called parental anti-human IL-23p19 antibody

The remaining lines, values behind:

B3: Clone MAb004 (antibody, human IgG1, V domains shown)
VH: B2 VH with D31A, I34M, D56G, P58T, Y109V
VL: EIVMTQSPATLSVSPGERATLSCKASRDVAIAVAWYQQKPGQAPRLLLFWASTRHTGIPARFSGSGSRTEFTLTISSLQSEDFAVYYCHQYSSYPFTFGGGTKVEIK
notes: Tested in full antibody format; The printed constant part is human IgG1 with LALA/YTE
- Relative IC50, inhibition of IL-23-induced STAT3 activation (luciferase reporter, HEK 293F IL-23R+/IL-12Rβ1+) (Recombinant Human IL-23 [2]): 0.409 relative to Reference Antibody 1
- koff (Recombinant Human IL-23 [3]): < 1e-06 s⁻¹
- kon (Recombinant Human IL-23 [3]): 247000 M⁻¹ s⁻¹

B4: Clone MAb001 (antibody, human IgG1, kappa, L234A L235A, V domains shown)
VH: B2 VH with D31T, I34L, D56G, P58T, I108Q, Y109H
VL: B2 VL
- Relative IC50, inhibition of IL-23-induced STAT3 activation (luciferase reporter, HEK 293F IL-23R+/IL-12Rβ1+) (Recombinant Human IL-23 [2]): 0.612 relative to Reference Antibody 1
- Relative IC50, inhibition of IL-23-induced phosphorylation of STAT3 in DB cells (pSTAT3 ELISA) (Recombinant Human IL-23 [4]): 0.573 relative to Reference Antibody 1
- koff (Recombinant Human IL-23 [3]): < 1e-06 s⁻¹
- kon (Recombinant Human IL-23 [3]): 151000 M⁻¹ s⁻¹

B5: Clone MAb003 (antibody, V domains shown)
VH: B2 VH with D31S, I34M, S57Y, E62D, Y109H
VL: B2 VL
- Relative IC50, inhibition of IL-23-induced STAT3 activation (luciferase reporter, HEK 293F IL-23R+/IL-12Rβ1+) (Recombinant Human IL-23 [2]): 0.868 relative to Reference Antibody 1
- Relative IC50, inhibition of IL-23-induced phosphorylation of STAT3 in DB cells (pSTAT3 ELISA) (Recombinant Human IL-23 [4]): 0.799 relative to Reference Antibody 1
- koff (Recombinant Human IL-23 [3]): < 1e-06 s⁻¹
- kon (Recombinant Human IL-23 [3]): 164000 M⁻¹ s⁻¹
